Laboratory results published in patent publication US6916917B1, “Chimeric pro-caspases and methods of using same” (California Institute of Technology, priority 1998, dated 2005).

Target: T1, pro-caspase-8 (Homo sapiens, UniProt P62942+Q14790)
T1 construct: in vitro translated, ^35S-labeled Fkp3-Casp8(206); made in house; host or cells: cell-free in vitro transcription/translation, TNT Reticulocyte Lysate System (Promega)
Assay: Cell-free processing of pro-caspase-8 (in vitro translated, 35S-labeled, SDS-PAGE autoradiography)
Assay type: biochemical
Settings: AP1510 100 nM; FK506 100 nM; Z-DEVD 10 μM
Experimental: In vitro transcription and translation of the indicated constructs with ^35S-labeled methionine were carried out with the TNT Reticulocyte Lysate System (Promega; Madison Wis.). The reaction mixture contained 1 μl of the in vitro translation product and the indicated drugs dissolved in 3 μl of CED3 reaction buffer (Xue et al., Genes Devel. 10:1073-1083 (1996), which is incorporated herein by reference). Final drug concentrations of 100 nM of AP1510 or FK506 and 10 μM of Z-Asp-Glu-Val-Asp(SEQ ID NO:1)(Z-DEVD; Enzyme System Products; Calif.) were used. The reaction mixture was incubated in 30° C. for 4 hr, then the reaction stopped by the addition of SDS sample buffer. Reaction products were visualized by SDS-PAGE and autoradiography.

T1 sequence (P62942+Q14790 fused): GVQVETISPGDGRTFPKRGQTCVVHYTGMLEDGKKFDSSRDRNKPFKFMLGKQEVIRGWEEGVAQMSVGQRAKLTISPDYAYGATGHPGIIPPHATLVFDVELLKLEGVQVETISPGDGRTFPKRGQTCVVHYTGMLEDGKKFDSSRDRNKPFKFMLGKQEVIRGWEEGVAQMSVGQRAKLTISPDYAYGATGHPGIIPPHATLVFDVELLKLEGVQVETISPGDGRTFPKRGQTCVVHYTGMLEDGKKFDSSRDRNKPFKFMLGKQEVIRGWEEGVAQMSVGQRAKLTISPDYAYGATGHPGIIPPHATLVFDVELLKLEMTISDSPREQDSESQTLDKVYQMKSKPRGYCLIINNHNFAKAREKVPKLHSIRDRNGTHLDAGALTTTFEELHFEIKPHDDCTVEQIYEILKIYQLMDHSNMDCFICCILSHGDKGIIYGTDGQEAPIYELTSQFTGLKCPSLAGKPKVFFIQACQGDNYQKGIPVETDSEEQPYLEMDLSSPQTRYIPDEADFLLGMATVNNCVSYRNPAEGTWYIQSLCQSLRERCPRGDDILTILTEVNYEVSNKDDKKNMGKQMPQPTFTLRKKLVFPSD

## Z-Asp-Glu-Val-Asp (ZDEVD; N-terminal benzyloxycarbonyl (Z); enzyme used in cell-free processing of Pro-Caspase-8) [z-DEVD]
  effect on AP1510-initiated cell-free processing of Fkp3-Casp8(206): inhibited
